± gives the standard deviation of the averaged measurements.

In this data set the test system is Saccharomyces cerevisiae. The data set can be described thus: protein stability index of tFT-peptide fusion (C-terminal peptide) (PSI (0-1 scale)); higher = more stable (slower turnover). Particulars: temperature: 30 C. Here is the method:
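MPS profiling in S. cerevisiae of the yeast C-terminome library: the last 12 aa of each annotated ORF are fused to the C-terminus of a sfGFP-mCherry timer, after a GGGS linker. Cells are FACS-sorted into 8 mCherry/sfGFP bins and deep-sequenced. PSI runs from 0 (unstable) to 1 (stable); wild type and das1Δ backgrounds, two technical replicates each.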

[1] abbreviates: genetic background: das1 deletion.

For DLIKEHSKDIQV [HCH1 C-terminal 12 aa], the protein stability index is, setting by setting: under setting [1], 0.6872 ± 0.0016; (genetic background: wild type) 0.691 ± 0.012.

DMEMEAIAAERD [HMF1 C-terminal 12 aa]: the protein stability index runs as follows: under setting [1], 0.714 ± 0.03; (genetic background: wild type) 0.706 ± 0.031.

As for DNLKYSLDCDFS [BGL2 C-terminal 12 aa], the protein stability index under setting [1] came out at 0.709 ± 0.023 and the protein stability index (genetic background: wild type) amounted to 0.666 ± 0.0075.

On to DNRPIYKRFFSS [HXT11 C-terminal 12 aa], for which the protein stability index reads like this: under setting [1], 0.7072 ± 0.0066; (genetic background: wild type) 0.511 ± 0.018.

Regarding DNTKESKDVKMN [RTT102 C-terminal 12 aa], the protein stability index by setting is: under setting [1], 0.6878 ± 0.004; (genetic background: wild type) 0.673 ± 0.081.

Turning to DNTTKHSSNVHT [YER079W C-terminal 12 aa], the protein stability index came out at 0.668 ± 0.014 under setting [1] and 0.667 ± 0.0093 (genetic background: wild type).

Regarding DNVEQRVLKQYM [EMC3 C-terminal 12 aa], the protein stability index runs as follows: under setting [1], 0.6864 ± 0.0062; (genetic background: wild type) 0.651 ± 0.0092.

Consider DPLYYVYCLHMP [NAT4 C-terminal 12 aa], for which the protein stability index is 0.6582 ± 0.0016 under setting [1] and 0.643 ± 0.0089 (genetic background: wild type).

Consider DQPFYKSLFSRK [HXT1 C-terminal 12 aa], for which the protein stability index worked out at 0.7117 ± 0.0036 under setting [1] and 0.685 ± 0.053 (genetic background: wild type).

On to DRDGCVNAVLLV [NSA2 C-terminal 12 aa], for which the protein stability index runs as follows: under setting [1], 0.701 ± 0.012; (genetic background: wild type) 0.6768 ± 0.0054.

In the case of DRWLNRKALNKG [BUD21 C-terminal 12 aa], the protein stability index amounted to 0.695 ± 0.031 under setting [1] and 0.676 ± 0.021 (genetic background: wild type).

Take DSATLVNVHIKR [SPR3 C-terminal 12 aa]: the protein stability index came to 0.7064 ± 0.0062 under setting [1] and 0.7269 ± 0.0019 (genetic background: wild type).

As for “DSNTGGIIASIF [YKL104W-A C-terminal 12 aa]”, the protein stability index runs as follows: under setting [1], 0.702 ± 0.027; (genetic background: wild type) 0.696 ± 0.027.

On to DSSKYSLGNNSS [SUR1 C-terminal 12 aa], for which the protein stability index amounted to 0.713 ± 0.025 under setting [1] and 0.686 ± 0.016 (genetic background: wild type).

For DTFIPSTLQSVT [YNL089C C-terminal 12 aa], the protein stability index under setting [1] was 0.702 ± 0.026 and the protein stability index (genetic background: wild type) came out at 0.678 ± 0.015.

With DTVKILTELFNL [SEC53 C-terminal 12 aa], the protein stability index is, setting by setting: under setting [1], 0.707 ± 0.011; (genetic background: wild type) 0.732 ± 0.062.

Take DTVPPEKLMKFV [RAX2 C-terminal 12 aa]: the protein stability index was determined as 0.7111 ± 0.0024 under setting [1] and 0.66 ± 0.027 (genetic background: wild type).

On to DVEELREQLENC [AIM7 C-terminal 12 aa], for which the protein stability index runs as follows: under setting [1], 0.692 ± 0.0025; (genetic background: wild type) 0.723 ± 0.018.

Turning to DVQGICLRNDKK [SLX4 C-terminal 12 aa], the protein stability index is, setting by setting: under setting [1], 0.684 ± 0.011; (genetic background: wild type) 0.651 ± 0.008.

With DYDEEDPYEDPF [IKI1 C-terminal 12 aa], the protein stability index under setting [1] amounted to 0.731 ± 0.042 and the protein stability index (genetic background: wild type) was found to be 0.6905 ± 0.0059.

In the case of EADMKTKLDISD [NBP2 C-terminal 12 aa], the protein stability index runs as follows: under setting [1], 0.695 ± 0.015; (genetic background: wild type) 0.696 ± 0.023.

Take EANFWTAALEYE [THI21 C-terminal 12 aa]: the protein stability index amounted to 0.7334 ± 0.0016 under setting [1] and 0.6857 ± 0.003 (genetic background: wild type).

As to EANLKVLNGLEI [YPR148C C-terminal 12 aa], the protein stability index by setting is: under setting [1], 0.687 ± 0.024; (genetic background: wild type) 0.667 ± 0.011.

On to EAQLSCNYEPLP [COS10 C-terminal 12 aa], for which the protein stability index reads like this: under setting [1], 0.707 ± 0.021; (genetic background: wild type) 0.673 ± 0.0098.

Turning to ECAPVPPAVRSY [SDH9 C-terminal 12 aa], the protein stability index is, setting by setting: under setting [1], 0.683 ± 0.011; (genetic background: wild type) 0.6797 ± 0.0018.

For ECYLITILWLHK [TDA2 C-terminal 12 aa], the protein stability index is, setting by setting: under setting [1], 0.256 ± 0.031; (genetic background: wild type) 0.289 ± 0.0072.

Regarding EDKEIVDGKVLK [TEF4 C-terminal 12 aa], the protein stability index was found to be 0.663 ± 0.016 under setting [1] and 0.674 ± 0.023 (genetic background: wild type).

On to EDSHYGNAKKVT [FPS1 C-terminal 12 aa], for which the protein stability index runs as follows: under setting [1], 0.708 ± 0.0097; (genetic background: wild type) 0.688 ± 0.011.

Take EDVQLALNKHMN [YAP1 C-terminal 12 aa]: the protein stability index under setting [1] came out at 0.685 ± 0.01 and the protein stability index (genetic background: wild type) was 0.69 ± 0.0072.

For the sequence EEESTTSENLHF [RSM25 C-terminal 12 aa], the protein stability index under setting [1] was found to be 0.699 ± 0.0097 and the protein stability index (genetic background: wild type) amounted to 0.69 ± 0.025.

EELLNQPPEEQI [GPX1 C-terminal 12 aa]: the protein stability index runs as follows: under setting [1], 0.712 ± 0.027; (genetic background: wild type) 0.766 ± 0.093.

For the sequence EELRPDTLESEL [REC107 C-terminal 12 aa], the protein stability index by setting is: under setting [1], 0.683 ± 0.0093; (genetic background: wild type) 0.6742 ± 0.0014.

EEMEEFKKLVMG [MIC19 C-terminal 12 aa]: the protein stability index runs as follows: under setting [1], 0.7037 ± 0.0043; (genetic background: wild type) 0.6922 ± 0.00094.

Consider EEQRNHLKDLYG [SLU7 C-terminal 12 aa], for which the protein stability index worked out at 0.6968 ± 0.0037 under setting [1] and 0.702 ± 0.011 (genetic background: wild type).

Consider EERKDALANNIK [CCS1 C-terminal 12 aa], for which the protein stability index is, setting by setting: under setting [1], 0.6794 ± 0.0017; (genetic background: wild type) 0.688 ± 0.07.

EEVETVSEHVKV [DPA10 C-terminal 12 aa]: the protein stability index was determined as 0.6781 ± 0.00078 under setting [1] and 0.691 ± 0.038 (genetic background: wild type).

EFLTNSILTRRK [COQ1 C-terminal 12 aa]: the protein stability index by setting is: under setting [1], 0.721 ± 0.048; (genetic background: wild type) 0.651 ± 0.065.

On to EFVVQSLRSRNQ [YFR018C C-terminal 12 aa], for which the protein stability index worked out at 0.7231 ± 0.0049 under setting [1] and 0.703 ± 0.035 (genetic background: wild type).

As for EGEHEQVLENFQ [GUT1 C-terminal 12 aa], the protein stability index stood at 0.702 ± 0.014 under setting [1] and 0.676 ± 0.032 (genetic background: wild type).

For EGFIAKVMCCLD [RFC5 C-terminal 12 aa], the protein stability index runs as follows: under setting [1], 0.606 ± 0.0065; (genetic background: wild type) 0.599 ± 0.021.

For the sequence EGWNSDNVYKLS [CYC2 C-terminal 12 aa], the protein stability index is 0.7213 ± 0.0026 under setting [1] and 0.598 ± 0.0034 (genetic background: wild type).

Take EHDKSPLSRKRQ [SFI1 C-terminal 12 aa]: the protein stability index reads like this: under setting [1], 0.708 ± 0.015; (genetic background: wild type) 0.703 ± 0.035.

Turning to EHRMLKLILNSG [NTO1 C-terminal 12 aa], the protein stability index by setting is: under setting [1], 0.694 ± 0.017; (genetic background: wild type) 0.644 ± 0.013.

EIKEMLVTLINK [SRL2 C-terminal 12 aa]: the protein stability index reads like this: under setting [1], 0.6725 ± 0.002; (genetic background: wild type) 0.652 ± 0.028.

As to EIVGRYVVETSK [ADH5 C-terminal 12 aa], the protein stability index runs as follows: under setting [1], 0.678 ± 0.028; (genetic background: wild type) 0.6821 ± 0.0047.

Turning to EKCSYYFLSRAH [YNL017C C-terminal 12 aa], the protein stability index reads like this: under setting [1], 0.6866 ± 0.0041; (genetic background: wild type) 0.66 ± 0.023.

On to EKGIFAGDINSD [COX12 C-terminal 12 aa], for which the protein stability index is 0.7005 ± 0.0047 under setting [1] and 0.726 ± 0.029 (genetic background: wild type).

As to EKKDTEGDVDMD [SSE1 C-terminal 12 aa], the protein stability index is, setting by setting: under setting [1], 0.678 ± 0.0095; (genetic background: wild type) 0.666 ± 0.011.

For the sequence “EKKRVLNAVCGL [YLR412C-A C-terminal 12 aa]”, the protein stability index under setting [1] amounted to 0.69 ± 0.016 and the protein stability index (genetic background: wild type) is 0.658 ± 0.021.

EKPPKEEPESDI [TIM54 C-terminal 12 aa] registered a protein stability index under setting [1] of 0.711 ± 0.032 and a protein stability index (genetic background: wild type) of 0.666 ± 0.0042.

EKVRCIKKYQSW [APD1 C-terminal 12 aa] displayed a protein stability index under setting [1] of 0.726 ± 0.0064 and a protein stability index (genetic background: wild type) of 0.727 ± 0.034.

In the case of ELPNGKVIYSRK [ERJ5 C-terminal 12 aa], the protein stability index by setting is: under setting [1], 0.687 ± 0.067; (genetic background: wild type) 0.745 ± 0.025.

ELTSSDDCKDFI [YDR124W C-terminal 12 aa]: the protein stability index stood at 0.7025 ± 0.0028 under setting [1] and 0.652 ± 0.034 (genetic background: wild type).

On to EMLGDKVNKKGI [SOK1 C-terminal 12 aa], for which the protein stability index was 0.727 ± 0.0085 under setting [1] and 0.67 ± 0.012 (genetic background: wild type).

Regarding EMNNIIAASRRH [RPL36A C-terminal 12 aa], the protein stability index by setting is: under setting [1], 0.701 ± 0.0077; (genetic background: wild type) 0.713 ± 0.048.

On to ENAEKQRTLKKN [RIA1 C-terminal 12 aa], for which the protein stability index came out at 0.6927 ± 0.00075 under setting [1] and 0.71 ± 0.045 (genetic background: wild type).

Turning to ENAHMQSAESCN [YLR236C C-terminal 12 aa], the protein stability index runs as follows: under setting [1], 0.682 ± 0.011; (genetic background: wild type) 0.717 ± 0.074.

With ENASQLPHPSQK [ZIM17 C-terminal 12 aa], the protein stability index was found to be 0.698 ± 0.024 under setting [1] and 0.691 ± 0.021 (genetic background: wild type).

Regarding ENDPWKVVRLAP [PDX3 C-terminal 12 aa], the protein stability index came to 0.711 ± 0.019 under setting [1] and 0.715 ± 0.011 (genetic background: wild type).

For ENLVKQEAINGS [YAF9 C-terminal 12 aa], the protein stability index is, setting by setting: under setting [1], 0.6823 ± 0.0044; (genetic background: wild type) 0.6834 ± 0.0042.

ENVDSPRKSNQL [SLM2 C-terminal 12 aa]: the protein stability index runs as follows: under setting [1], 0.69 ± 0.018; (genetic background: wild type) 0.678 ± 0.014.

In turn, EPFGPKMSTVQV [YHB1 C-terminal 12 aa] registered a protein stability index under setting [1] of 0.6732 ± 0.0032 and a protein stability index (genetic background: wild type) of 0.663 ± 0.0085.

With EQLEEEFVRQEH [OSW7 C-terminal 12 aa], the protein stability index under setting [1] amounted to 0.7319 ± 0.00083 and the protein stability index (genetic background: wild type) came to 0.7301 ± 0.0026.

Regarding EQLEQDDGRKGG [LSM12 C-terminal 12 aa], the protein stability index amounted to 0.682 ± 0.024 under setting [1] and 0.669 ± 0.023 (genetic background: wild type).

Consider EQNAALGQGLGR [TIM9 C-terminal 12 aa], for which the protein stability index by setting is: under setting [1], 0.70792 ± 0.00034; (genetic background: wild type) 0.692 ± 0.0086.

For EQNLEALAKSFF [BEM4 C-terminal 12 aa], the protein stability index under setting [1] was found to be 0.734 ± 0.023 and the protein stability index (genetic background: wild type) is 0.697 ± 0.029.

With EQSEQPEQHQDK [RPN10 C-terminal 12 aa], the protein stability index under setting [1] turned out to be 0.697 ± 0.018 and the protein stability index (genetic background: wild type) was 0.666 ± 0.01.

ERKPLDFLRTAK [MRPL39 C-terminal 12 aa] came in with a protein stability index under setting [1] of 0.6743 ± 0.0021 and a protein stability index (genetic background: wild type) of 0.659 ± 0.0088.
